# From the Human Domainome abundance scans (Beltran et al. 2025)
# ± gives the uncertainty stated by the source.
# B1: POU domain, class 4, transcription factor 2, residues 256 to 327; numbered along this chain, Q12837 (parent)
# chain: RDLEAFAERFKQRRIKLGVTQADVGSALANLKIPGVGSLSQSTICRFESLTLSHNNMIALKPILQAWLEEAE
# Variants of: B1
# Experiment: abundance fitness (aPCA) (normalised: wild type 0, dead -1); higher = more abundant; growth selection in yeast, the domain comes from the species named
# Settings: Homo sapiens
row,Variant,abundance fitness
1,RDLEAFAERFKQRPIKLGVTQADVGSALANLKIPGVGSLSQSTICRFESLTLSHNNMIALKPILQAWLEEAE [R14P],-0.985 ± 0.078
2,RDLEAFAERFKQRLIKLGVTQADVGSALANLKIPGVGSLSQSTICRFESLTLSHNNMIALKPILQAWLEEAE [R14L],-0.847 ± 0.095
3,RDLEAFAERFKQRYIKLGVTQADVGSALANLKIPGVGSLSQSTICRFESLTLSHNNMIALKPILQAWLEEAE [R14Y],-0.594 ± 0.32
4,RDLEAFAERFKQRIIKLGVTQADVGSALANLKIPGVGSLSQSTICRFESLTLSHNNMIALKPILQAWLEEAE [R14I],-0.601 ± 0.31
5,RDLEAFAERFKQRKIKLGVTQADVGSALANLKIPGVGSLSQSTICRFESLTLSHNNMIALKPILQAWLEEAE [R14K],-0.632 ± 0.42
6,RDLEAFAERFKQRAIKLGVTQADVGSALANLKIPGVGSLSQSTICRFESLTLSHNNMIALKPILQAWLEEAE [R14A],-0.906 ± 0.42
7,RDLEAFAERFKQRCIKLGVTQADVGSALANLKIPGVGSLSQSTICRFESLTLSHNNMIALKPILQAWLEEAE [R14C],-0.854 ± 0.21
8,RDLEAFAERFKQRSIKLGVTQADVGSALANLKIPGVGSLSQSTICRFESLTLSHNNMIALKPILQAWLEEAE [R14S],-0.904 ± 0.1
9,RDLEAFAERFKQRGIKLGVTQADVGSALANLKIPGVGSLSQSTICRFESLTLSHNNMIALKPILQAWLEEAE [R14G],-1.07 ± 0.21
10,RDLEAFAERFKQRHIKLGVTQADVGSALANLKIPGVGSLSQSTICRFESLTLSHNNMIALKPILQAWLEEAE [R14H],-0.859 ± 0.21
11,RDLEAFAERFKQRVIKLGVTQADVGSALANLKIPGVGSLSQSTICRFESLTLSHNNMIALKPILQAWLEEAE [R14V],-0.998 ± 0.27
12,RDLEAFAERFKQRTIKLGVTQADVGSALANLKIPGVGSLSQSTICRFESLTLSHNNMIALKPILQAWLEEAE [R14T],-0.698 ± 0.1
13,RDLEAFAERFKQRQIKLGVTQADVGSALANLKIPGVGSLSQSTICRFESLTLSHNNMIALKPILQAWLEEAE [R14Q],-0.819 ± 0.18
14,RDLEAFAERFKQRMIKLGVTQADVGSALANLKIPGVGSLSQSTICRFESLTLSHNNMIALKPILQAWLEEAE [R14M],-0.725 ± 0.14
15,RDLEAFAERCKQRRIKLGVTQADVGSALANLKIPGVGSLSQSTICRFESLTLSHNNMIALKPILQAWLEEAE [F10C],-0.817 ± 0.33
16,RDLEAFAERDKQRRIKLGVTQADVGSALANLKIPGVGSLSQSTICRFESLTLSHNNMIALKPILQAWLEEAE [F10D],-0.823 ± 0.21
17,RDLEAFAERQKQRRIKLGVTQADVGSALANLKIPGVGSLSQSTICRFESLTLSHNNMIALKPILQAWLEEAE [F10Q],-0.825 ± 0.23
18,RDLEAFAERRKQRRIKLGVTQADVGSALANLKIPGVGSLSQSTICRFESLTLSHNNMIALKPILQAWLEEAE [F10R],-0.814 ± 0.099
19,RDLEAFAEREKQRRIKLGVTQADVGSALANLKIPGVGSLSQSTICRFESLTLSHNNMIALKPILQAWLEEAE [F10E],-0.755 ± 0.26
20,RDLEAFAERGKQRRIKLGVTQADVGSALANLKIPGVGSLSQSTICRFESLTLSHNNMIALKPILQAWLEEAE [F10G],-0.955 ± 0.17
21,RDLEAFAERSKQRRIKLGVTQADVGSALANLKIPGVGSLSQSTICRFESLTLSHNNMIALKPILQAWLEEAE [F10S],-1 ± 0.16
22,RDLEAFAERPKQRRIKLGVTQADVGSALANLKIPGVGSLSQSTICRFESLTLSHNNMIALKPILQAWLEEAE [F10P],-0.994 ± 0.12
23,RDLEAFAERMKQRRIKLGVTQADVGSALANLKIPGVGSLSQSTICRFESLTLSHNNMIALKPILQAWLEEAE [F10M],-0.694 ± 0.34
24,RDLEAFAERVKQRRIKLGVTQADVGSALANLKIPGVGSLSQSTICRFESLTLSHNNMIALKPILQAWLEEAE [F10V],-0.59 ± 0.16
25,RDLEAFAERLKQRRIKLGVTQADVGSALANLKIPGVGSLSQSTICRFESLTLSHNNMIALKPILQAWLEEAE [F10L],-0.921 ± 0.14

row,Variant,abundance fitness
1,RDLEAFAERIKQRRIKLGVTQADVGSALANLKIPGVGSLSQSTICRFESLTLSHNNMIALKPILQAWLEEAE [F10I],-0.632 ± 0.3
2,RDLEAFAERTKQRRIKLGVTQADVGSALANLKIPGVGSLSQSTICRFESLTLSHNNMIALKPILQAWLEEAE [F10T],-0.707 ± 0.12
3,RDLEAFAERFWQRRIKLGVTQADVGSALANLKIPGVGSLSQSTICRFESLTLSHNNMIALKPILQAWLEEAE [K11W],-0.701 ± 0.2
4,RDLEAFAERFMQRRIKLGVTQADVGSALANLKIPGVGSLSQSTICRFESLTLSHNNMIALKPILQAWLEEAE [K11M],-0.706 ± 0.13
5,RDLEAFAERFHQRRIKLGVTQADVGSALANLKIPGVGSLSQSTICRFESLTLSHNNMIALKPILQAWLEEAE [K11H],-0.901 ± 0.25
6,RDLEAFAERFQQRRIKLGVTQADVGSALANLKIPGVGSLSQSTICRFESLTLSHNNMIALKPILQAWLEEAE [K11Q],-0.34 ± 0.13
7,RDLEAFAERFRQRRIKLGVTQADVGSALANLKIPGVGSLSQSTICRFESLTLSHNNMIALKPILQAWLEEAE [K11R],-0.106 ± 0.056
8,RDLEAFAERFSQRRIKLGVTQADVGSALANLKIPGVGSLSQSTICRFESLTLSHNNMIALKPILQAWLEEAE [K11S],-0.443 ± 0.08
9,RDLEAFAERFPQRRIKLGVTQADVGSALANLKIPGVGSLSQSTICRFESLTLSHNNMIALKPILQAWLEEAE [K11P],-0.994 ± 0.12
10,RDLEAFAERFEQRRIKLGVTQADVGSALANLKIPGVGSLSQSTICRFESLTLSHNNMIALKPILQAWLEEAE [K11E],-0.914 ± 0.34
11,RDLEAFAERFTQRRIKLGVTQADVGSALANLKIPGVGSLSQSTICRFESLTLSHNNMIALKPILQAWLEEAE [K11T],-0.194 ± 0.1
12,RDLEAFAERFFQRRIKLGVTQADVGSALANLKIPGVGSLSQSTICRFESLTLSHNNMIALKPILQAWLEEAE [K11F],-0.761 ± 0.19
13,RDLEAFAERFYQRRIKLGVTQADVGSALANLKIPGVGSLSQSTICRFESLTLSHNNMIALKPILQAWLEEAE [K11Y],-0.781 ± 0.32
14,RDLEAFAERFAQRRIKLGVTQADVGSALANLKIPGVGSLSQSTICRFESLTLSHNNMIALKPILQAWLEEAE [K11A],-0.337 ± 0.064
15,RDLEAFAERFLQRRIKLGVTQADVGSALANLKIPGVGSLSQSTICRFESLTLSHNNMIALKPILQAWLEEAE [K11L],-0.661 ± 0.094
16,RDLEAFAERFGQRRIKLGVTQADVGSALANLKIPGVGSLSQSTICRFESLTLSHNNMIALKPILQAWLEEAE [K11G],-0.678 ± 0.093
17,RDLEAFAEWFKQRRIKLGVTQADVGSALANLKIPGVGSLSQSTICRFESLTLSHNNMIALKPILQAWLEEAE [R9W],-0.136 ± 0.074
18,RDLEAFAEYFKQRRIKLGVTQADVGSALANLKIPGVGSLSQSTICRFESLTLSHNNMIALKPILQAWLEEAE [R9Y],-0.055 ± 0.15
19,RDLEAFAETFKQRRIKLGVTQADVGSALANLKIPGVGSLSQSTICRFESLTLSHNNMIALKPILQAWLEEAE [R9T],0.033 ± 0.073
20,RDLEAFAESFKQRRIKLGVTQADVGSALANLKIPGVGSLSQSTICRFESLTLSHNNMIALKPILQAWLEEAE [R9S],0.018 ± 0.047
21,RDLEAFAEQFKQRRIKLGVTQADVGSALANLKIPGVGSLSQSTICRFESLTLSHNNMIALKPILQAWLEEAE [R9Q],0.195 ± 0.088
22,RDLEAFAERFKQTRIKLGVTQADVGSALANLKIPGVGSLSQSTICRFESLTLSHNNMIALKPILQAWLEEAE [R13T],-0.165 ± 0.086
23,RDLEAFAERFKQGRIKLGVTQADVGSALANLKIPGVGSLSQSTICRFESLTLSHNNMIALKPILQAWLEEAE [R13G],-0.067 ± 0.069
24,RDLEAFAERFKQPRIKLGVTQADVGSALANLKIPGVGSLSQSTICRFESLTLSHNNMIALKPILQAWLEEAE [R13P],-1.02 ± 0.14
25,RDLEAFAERFKQWRIKLGVTQADVGSALANLKIPGVGSLSQSTICRFESLTLSHNNMIALKPILQAWLEEAE [R13W],-0.338 ± 0.099

row,Variant,abundance fitness
1,RDLEAFAERFKQLRIKLGVTQADVGSALANLKIPGVGSLSQSTICRFESLTLSHNNMIALKPILQAWLEEAE [R13L],-0.223 ± 0.057
2,RDLEAFAERFKQHRIKLGVTQADVGSALANLKIPGVGSLSQSTICRFESLTLSHNNMIALKPILQAWLEEAE [R13H],-0.115 ± 0.082
3,RDLEAFAERFKQNRIKLGVTQADVGSALANLKIPGVGSLSQSTICRFESLTLSHNNMIALKPILQAWLEEAE [R13N],-0.401 ± 0.14
4,RDLEAFAERFKQARIKLGVTQADVGSALANLKIPGVGSLSQSTICRFESLTLSHNNMIALKPILQAWLEEAE [R13A],0.066 ± 0.05
5,RDLEAFAERFKQCRIKLGVTQADVGSALANLKIPGVGSLSQSTICRFESLTLSHNNMIALKPILQAWLEEAE [R13C],-0.476 ± 0.18
6,RDLEAFAERFKQSRIKLGVTQADVGSALANLKIPGVGSLSQSTICRFESLTLSHNNMIALKPILQAWLEEAE [R13S],-0.014 ± 0.054
7,RDLEAFAERFKQYRIKLGVTQADVGSALANLKIPGVGSLSQSTICRFESLTLSHNNMIALKPILQAWLEEAE [R13Y],-0.761 ± 0.31
8,RDLEAFAERFKQDRIKLGVTQADVGSALANLKIPGVGSLSQSTICRFESLTLSHNNMIALKPILQAWLEEAE [R13D],-0.462 ± 0.34
9,RDLEAFAERFKQFRIKLGVTQADVGSALANLKIPGVGSLSQSTICRFESLTLSHNNMIALKPILQAWLEEAE [R13F],-0.375 ± 0.13
10,RDLEAFAERFKQVRIKLGVTQADVGSALANLKIPGVGSLSQSTICRFESLTLSHNNMIALKPILQAWLEEAE [R13V],0.067 ± 0.057
11,RDLEAFAERFKQERIKLGVTQADVGSALANLKIPGVGSLSQSTICRFESLTLSHNNMIALKPILQAWLEEAE [R13E],-0.03 ± 0.09
12,RDLEAFAERFKQQRIKLGVTQADVGSALANLKIPGVGSLSQSTICRFESLTLSHNNMIALKPILQAWLEEAE [R13Q],-0.113 ± 0.087
13,RDLEAFAERFKVRRIKLGVTQADVGSALANLKIPGVGSLSQSTICRFESLTLSHNNMIALKPILQAWLEEAE [Q12V],-0.232 ± 0.091
14,RDLEAFAERFKSRRIKLGVTQADVGSALANLKIPGVGSLSQSTICRFESLTLSHNNMIALKPILQAWLEEAE [Q12S],-0.186 ± 0.065
15,RDLEAFAERFKYRRIKLGVTQADVGSALANLKIPGVGSLSQSTICRFESLTLSHNNMIALKPILQAWLEEAE [Q12Y],-0.463 ± 0.23
16,RDLEAFAERFKDRRIKLGVTQADVGSALANLKIPGVGSLSQSTICRFESLTLSHNNMIALKPILQAWLEEAE [Q12D],-0.148 ± 0.16
17,RDLEAFAERFKERRIKLGVTQADVGSALANLKIPGVGSLSQSTICRFESLTLSHNNMIALKPILQAWLEEAE [Q12E],-0.016 ± 0.1
18,RDLEAFAERFKIRRIKLGVTQADVGSALANLKIPGVGSLSQSTICRFESLTLSHNNMIALKPILQAWLEEAE [Q12I],-0.063 ± 0.13
19,RDLEAFAERFKWRRIKLGVTQADVGSALANLKIPGVGSLSQSTICRFESLTLSHNNMIALKPILQAWLEEAE [Q12W],-0.269 ± 0.094
20,RDLEAFAERFKARRIKLGVTQADVGSALANLKIPGVGSLSQSTICRFESLTLSHNNMIALKPILQAWLEEAE [Q12A],0.045 ± 0.056
21,RDLEAFAERFKPRRIKLGVTQADVGSALANLKIPGVGSLSQSTICRFESLTLSHNNMIALKPILQAWLEEAE [Q12P],-1.22 ± 0.32
22,RDLEAFAERFKCRRIKLGVTQADVGSALANLKIPGVGSLSQSTICRFESLTLSHNNMIALKPILQAWLEEAE [Q12C],-0.865 ± 0.43
23,RDLEAFAERFKFRRIKLGVTQADVGSALANLKIPGVGSLSQSTICRFESLTLSHNNMIALKPILQAWLEEAE [Q12F],-0.298 ± 0.21
24,RDLEAFAERFKHRRIKLGVTQADVGSALANLKIPGVGSLSQSTICRFESLTLSHNNMIALKPILQAWLEEAE [Q12H],0.011 ± 0.16
25,RDLEAFAERFKMRRIKLGVTQADVGSALANLKIPGVGSLSQSTICRFESLTLSHNNMIALKPILQAWLEEAE [Q12M],-0.194 ± 0.1
